Among the data in article PMC6614843 (2019) are Kd values, retold here.

Assay [1] has as its target T1, Polβ(WT), purified recombinant (human, UniProt P06746 1-335). Put plainly: SPR; mean of repeats. (In general: In SPR one partner is held on a chip, and binding of the other changes the refractive index at the surface.)
Assay [2] deals with T2, Polβ(T304I), purified recombinant (human, UniProt P06746 1-335, T304I). Put plainly: SPR; mean of repeats.
Assay [3] concerns the target T1, Polβ(WT), purified recombinant. Briefly: SPR; representative experiment.
Assay [4] deals with T2, Polβ(T304I), purified recombinant. Briefly: SPR; representative experiment.

One may read the Kd as the concentration at which binding is half-saturated.

B1: NTD-XRCC1(1-151)-His (domain or fragment)
chain: MPEIRLRHVVSCSSQDSTHCAENLLKADTYRKWRAAKAGEKTISVVLQLEKEEQIHSVDIGNDGSAFVEVLVGSSAGGAGEQDYEVLLVTSSFMSPSESRSGSNPNRVRMFGPDKLVRAAAEKRWDRVKIVCSQPYSKDSPFGLSFVRFHS
With B1, the Kd in assay [1] stood at 534 nM; in assay [2] it was 3300 nM; in assay [3] it was 358 nM; in assay [4] it was 3650 nM.
